Experimental data as given in US20140120109A1 (Regeneron, published 2014).
Changes are numbered by the printed parent chain.

T1: human TL1A, soluble, CHO-expressed, residues 72-251 of SEQ ID NO:244 with N-terminal His6-tag (human, UniProt O95150 72-251)
T1 construct: also called hTL1A; hTL1A (CHO)
T1 sequence: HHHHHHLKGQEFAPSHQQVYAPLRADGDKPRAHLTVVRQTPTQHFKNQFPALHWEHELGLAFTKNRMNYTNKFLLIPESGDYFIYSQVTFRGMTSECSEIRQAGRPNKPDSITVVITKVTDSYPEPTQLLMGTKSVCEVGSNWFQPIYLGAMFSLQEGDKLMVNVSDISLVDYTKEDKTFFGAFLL

T2: cynomolgus monkey TL1A, soluble, CHO-expressed, residues 72-251 of SEQ ID NO:248 with N-terminal His6-tag (cynomolgus monkey (Macaca fascicularis), UniProt O95150 72-251 (human entry))
T2 construct: also called MfTL1A; MfTL1A (CHO)
T2 chain: T1 sequence with F45L, I84V

T3: rat TL1A, soluble, CHO-expressed, residues 76-252 of SEQ ID NO:258 with N-terminal His6-tag (rat, UniProt Q8K3Y7 76-252)
T3 construct: also called rTL1A; rTL1A (CHO)
T3 sequence: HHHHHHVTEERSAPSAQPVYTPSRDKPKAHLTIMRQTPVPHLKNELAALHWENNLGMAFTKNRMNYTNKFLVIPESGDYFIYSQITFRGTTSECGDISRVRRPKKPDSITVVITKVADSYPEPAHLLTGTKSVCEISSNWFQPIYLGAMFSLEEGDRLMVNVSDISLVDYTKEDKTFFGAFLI

T4: full length human TL1A expressed on HEK293 cells (human, UniProt O95150 1-251)
T4 sequence: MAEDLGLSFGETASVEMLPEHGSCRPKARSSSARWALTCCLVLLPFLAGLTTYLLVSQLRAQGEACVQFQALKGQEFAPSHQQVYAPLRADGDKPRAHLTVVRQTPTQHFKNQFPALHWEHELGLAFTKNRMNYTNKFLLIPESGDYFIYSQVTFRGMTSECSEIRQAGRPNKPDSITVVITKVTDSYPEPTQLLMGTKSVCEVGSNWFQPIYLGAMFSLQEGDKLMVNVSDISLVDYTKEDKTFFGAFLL

T5: full-length Fhm, human TL1A(Q167R), expressed on HEK293 cells (human, UniProt O95150 1-251)
T5 sequence: T4 sequence with Q167R

B1: H4H1725P (antibody, human IgG4 S228P, V domains shown)
VH: QVQLVQSGAEVKKPGASVKVSCKASGYTFTGYYMHWVRQAPGQGLEWMGWIKPKSGGTNYVQKFQGRVTMTRDTSINTAYMELNNLKSDDTAVYYCATGGSQDASDFWGQGTMVTVSS
VL: DIQMTQSPSSVSASVGGRVTITCRASQDISIWLAWYQQKPGKAPNLLIYAASSLQSGVPSRFSGSGSGTDFTLTISSLQPEDFATYYCQQADSFPLTFGGGTKVEIK
B2: H4H1742P (antibody, human IgG4 S228P, V domains shown)
VH: EVQLVESGGGLVQPGGSLRLSCAASGFTFSNYVMNWVRQAPGKGLEWVSVISGSGGSTHYADSVKGRFTISRDNSKDALYLQMNSLRAEDTAVYYCAKGPLEAYYYYNGMDVWGQGTTVTVSS
VL: DIQLTQSPSFLSASVGDRVTITCWASQAISSYLAWYQHKPGRAPKLLIYSTSTLQSGVPSRFSGSGSGTEFTLTISSLQPEDFATYYCQQLNSYPTFGQGTKLEIK
B3: H4H1745P (antibody, human IgG4 S228P, V domains shown)
VH: EVQLVESGGGLVQPGGSLRLSCAASGFTFSSYAMTWVRQAPGKGLEWVSGVSGRGGSTYYADSVKGRFTISRDNSKNTLYLQMNSLRAEDTAVYYCAYWDISSFDYWGQGTLVTVSS
VL: DIQLTQSPSFLSASVGDRVTITCWASQGISTYLAWYQQKPGKTPKLLIYAASTLQSGVPSRFSGSGSGTDFTLTISSLQPEDFATYYCQQFNSYPLTFGGGTKVEIK
B4: H4H1738P (antibody, human IgG4 S228P, V domains shown)
VH: EVQLVESGGALVKPGGSLRLSCAVSGFTFINDWMNWVRQAPGKGLEWVGRIKSTTDGGTTDDAAPVKGRFTISRDDSKNTLYLQMNSLKTEDTAVYYCTRDRNRQRNYFYDGMDVWGQGTTVTVSA
VL: DIVMTQSPVSLPVTPGEPASISCRSSQRLLHNNGNNYLDWYLQKPGQSPQLLIYLGSNRASGVPDRFSGSGSGTDFTLKVSRVEAEDVGVYYCMQALQTPYTFGQGTKLEIK

Molecular target: T1, human TL1A, soluble, CHO-expressed, …
Experiment: SPR 25C, mAb captured
How it was run: (§1)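 Biacore T100 SPR with captured mAb and soluble TL1A/Fhm analyte; ka and kd fitted to a 1:1 model assuming monomeric TL1A. KD = kd/ka; t1/2 (min) = ln2/(60·kd).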

Kd [nM] | t1/2 [h] | Binder
0.0636 | 3.08 | B1
0.0604 | 12.6 | B2
0.164 | 2.87 | B3
0.608 | 1.07 | B4

Molecular target: T2, cynomolgus monkey TL1A, soluble, …
Experiment: SPR 25C, mAb captured
How it was run: as §1

Kd [nM] | t1/2 [h] | Binder
0.346 | 1.07 | B1
0.115 | 9.62 | B2
0.115 | 3.85 | B3
0.361 | 1.55 | B4

Molecular target: T3, rat TL1A, soluble, CHO-expressed, …
Experiment: SPR 25C, mAb captured
How it was run: as §1

Kd [nM] | t1/2 [h] | binding result | Binder
0.317 | 0.433 | – | B1
0.078 | 2.4 | – | B2
2.7 | 0.0667 | – | B3
– | – | no binding (tested: up to 100 nM) | B4

Molecular target: T4, full length human TL1A expressed on …
Experiment: cell-based or functional assay

IC50, reporter + 10,000 TL1A cells [nM] | Binder
0.66 | B1
6.55 | B2
0.76 | B3
7.47 | B4

Molecular target: T5, full-length Fhm, human TL1A(Q167R), …
Experiment: cell-based or functional assay

IC50, reporter + 10,000 TL1A cells [nM] | Binder
0.94 | B1
8.39 | B2
2.12 | B3
7.75 | B4

Molecular target: T1, human TL1A, soluble, CHO-expressed, …
Experiment: ELISA, blocks hTL1A (10 pM) binding hDcR3-Fc
How it was run: (§2)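 Competition sandwich ELISA: biotinylated CHO-expressed ligand (human TL1A, FHM Q167R variant, or cynomolgus TL1A) at fixed concentration preincubated with titrated antibody 1 h at 25 °C, then 1 h on hDR3-Fc or hDcR3-Fc coated wells. Bound ligand detected by streptavidin-HRP/TMB at 450 nm; sigmoidal dose-response fit.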

IC50 [nM] | Binder
0.068 | B1
0.181 | B2
0.058 | B3
0.122 | B4

Molecular target: T2, cynomolgus monkey TL1A, soluble, …
Experiment: ELISA, blocks MfTL1A (500 pM) binding hDR3-Fc
How it was run: as §2

IC50 [nM] | Binder
0.016 | B1
0.24 | B2
0.05 | B3
0.117 | B4
